In patent US20240392013A1 (STELEXIS THERAPEUTICS, published 2024):

Assays:
[1] = target: T1, IL1RAP on HEK-Blue IL1β / HEK-Blue IL33 reporter cells (UniProt Q9NPH3 21-570, limits assumed); assay: cell-based or functional assay
T1 sequence (looked up): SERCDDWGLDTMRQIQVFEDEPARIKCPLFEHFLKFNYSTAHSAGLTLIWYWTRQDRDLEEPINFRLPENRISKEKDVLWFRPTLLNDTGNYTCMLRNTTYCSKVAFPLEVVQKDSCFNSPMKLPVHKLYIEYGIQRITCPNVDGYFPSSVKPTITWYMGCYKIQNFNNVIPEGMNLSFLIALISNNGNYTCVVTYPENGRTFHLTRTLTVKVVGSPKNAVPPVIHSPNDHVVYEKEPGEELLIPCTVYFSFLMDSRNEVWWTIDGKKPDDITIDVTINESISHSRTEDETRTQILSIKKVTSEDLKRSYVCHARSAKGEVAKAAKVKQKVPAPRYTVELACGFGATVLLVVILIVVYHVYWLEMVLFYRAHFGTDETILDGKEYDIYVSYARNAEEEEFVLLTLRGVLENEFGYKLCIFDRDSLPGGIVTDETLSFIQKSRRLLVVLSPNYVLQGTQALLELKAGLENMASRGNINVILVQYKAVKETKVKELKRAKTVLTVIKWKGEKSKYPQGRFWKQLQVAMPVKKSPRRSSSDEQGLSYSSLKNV

[2] = target: T1, IL1RAP on HEK-Blue IL1β / HEK-Blue IL33 …; assay: cell-based or functional assay; remark: listed apart in the source
[3] = target: T2, recombinant human IL1RAP protein, extracellular domain His-tagged (Sino Biological, Cat #10121-H08H) (human, UniProt Q9NPH3 21-367); assay: cell-free ELISA, human IL1RAP coated at 1 µg/ml
T2 construct: extracellular domain; Bought protein; The Octet analyte is printed as huIL1RAP-His (Sino Biological, lot MB08MA1301) without a catalogue number; also called huIL1RAP-His; hIL1RAP; not shown: His tag
T2 sequence (looked up): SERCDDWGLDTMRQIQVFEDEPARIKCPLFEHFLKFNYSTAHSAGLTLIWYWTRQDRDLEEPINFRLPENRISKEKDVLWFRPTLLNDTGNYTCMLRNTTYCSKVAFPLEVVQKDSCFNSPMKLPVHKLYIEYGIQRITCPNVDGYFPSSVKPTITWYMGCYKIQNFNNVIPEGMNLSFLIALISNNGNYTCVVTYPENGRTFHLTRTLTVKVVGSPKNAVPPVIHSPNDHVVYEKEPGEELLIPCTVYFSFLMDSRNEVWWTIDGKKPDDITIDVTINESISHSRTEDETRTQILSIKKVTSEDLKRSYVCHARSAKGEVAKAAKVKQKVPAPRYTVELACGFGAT
Procedure: Recombinant human or mouse IL1RAP proteins (Sino Biological, Beijing, China; Cat #10121-H08H and Sino Biological, Cat #52657-M08H respectively) were diluted in PBS, pH 7.4 at concentration of 1 μg/ml, coated on high-binding 384-well clear plates and incubated overnight at 4° C. Following, plates were washed 3× with 0.05% Tween-20 in PBS, pH 7.5 and then blocked with 1% BSA in PBS for 1 hour at room temperature. After 3× washes, wells were incubated with each antibody at the highest concentration of 100 nM followed by seven serial half log dilutions (in 1% BSA and 0.05% Tween-20 in PBS) for 1 hour at room temperature. Plates were then washed 3× and incubated with […] detection antibody (Medna, TX, USA; Cat #D8212, 0.5 μg/ml diluted in 0.02% Tween-20 in PBS). After 5× washes, Supersignal ELISA Pico substrate (Thermofisher, MA, USA; Cat #37069) was applied to wells and chemiluminescent signal was read on Sprectramax L for 200 ms/well. Similarly, detection with specific κ and λ antibodies was conducted to define light chain isotyping.

[4] = target: T3, recombinant mouse IL1RAP protein (Sino Biological, Cat #52657-M08H) (mouse, UniProt Q61730 21-359); assay: cell-free ELISA, mouse IL1RAP coated; data not shown
T3 construct: Bought protein
T3 sequence (looked up): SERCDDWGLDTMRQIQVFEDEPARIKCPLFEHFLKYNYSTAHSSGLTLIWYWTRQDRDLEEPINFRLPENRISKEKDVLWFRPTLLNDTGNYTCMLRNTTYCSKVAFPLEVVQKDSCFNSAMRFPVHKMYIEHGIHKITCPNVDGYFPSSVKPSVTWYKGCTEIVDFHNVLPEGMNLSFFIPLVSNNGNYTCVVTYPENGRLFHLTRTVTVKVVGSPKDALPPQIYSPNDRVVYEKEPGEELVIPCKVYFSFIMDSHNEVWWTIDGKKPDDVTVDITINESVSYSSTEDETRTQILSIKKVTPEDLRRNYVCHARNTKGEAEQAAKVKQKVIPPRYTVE
Method in brief: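 Plates coated overnight at 4 °C with recombinant IL1RAP at 1 μg/ml in PBS pH 7.4, then blocked with 1% BSA. Antibodies incubated 1 h at room temperature from 100 nM in seven half-log dilutions. Bound antibody detected with anti-His HRP and chemiluminescence.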

B1: STLX2012 (antibody, V domains shown)
VH: QVQLLQSGAEVKKPGSSVKVSCKASGGTFSIYAIDWVRQAPGQGLEWMGGIIPIFGTANSAQKFQGRVTITADKSTSTAYMELSSLRSEDTAVYYCARNGATSDAFDMWGQGTMVTVSS
VL: EIVLTQSPGTLSLSPGERATLSCRASLSVSSNYLAWFQQRPGQAPRLLIHGVSRRATGIPDRFSGSGSGTDFTLTISRLEPEDFAVYYCQQYGSSPLTFGGGTKVEIK
notes: Purified from hybridoma of immunized Alivamab mice; intact IgG; captured on anti-mouse IgG Fc sensors in Octet; kappa light chain; also called 74804_12A21B
IC50, HEK-BlueIL1β NFκB Reporter Assay [1]: 1.31e-09 M (implied; unit not printed) | Max % Inhibition at 200 nM, HEK-BlueIL1β NFκB Reporter Assay [1]: 100% | Max % Inhibition at 200 nM, HEK-BlueIL33 NFκB Reporter Assay [2]: 95% | EC50 [3]: 0.985 nM | binding result [4]: no binding (tested: 100 nM)

B2: STLX2043 (antibody, V domains shown)
VH: QVQLLQSGAEVKKPGSSVKVSCKASGGTFSIYAIDWVRQAPGQGLEWMGGIIPIFGTENSAQNFQGRITITADKSTNTAYMELSSLRSEDTAVYYCARNGATSDAFDIWGQGTMVTVFS
VL: EIVLTQSPGTLSLSPGERATLSCRASLSVSSNYLAWFQQRPGQAPRLLIYGVSRRATGIPDRFSGSGSGTDFTLTISRLEPEDFAVYYCQQYGSSPLTFGGGTKVEIK
notes: Purified from hybridoma of immunized Alivamab mice; intact IgG; captured on anti-mouse IgG Fc sensors in Octet; kappa light chain; also called 74804_43F04A
IC50, HEK-BlueIL1β NFκB Reporter Assay [1]: 2.29e-09 M (implied; unit not printed) | Max % Inhibition at 200 nM, HEK-BlueIL1β NFκB Reporter Assay [1]: 99% | IC50, HEK-BlueIL33 NFκB Reporter Assay [2]: 9.62e-09 M (implied; unit not printed) | Max % Inhibition at 200 nM, HEK-BlueIL33 NFκB Reporter Assay [2]: 85% | EC50 [3]: 1.04 nM | binding result [4]: no binding (tested: 100 nM)
